For 66 molecules, peptide exchange yield results are on record in patent US20200087364A1 (IMMATICS BIOTECHNOLOGIES, published 2020).

To fix the notation:
B1: DGIADASNLSYY (peptide)
peptide: DGIADASNLSYY
B2: YADLLIYTY (peptide)
peptide: YADLLIYTY
B3: YFGNYFTYY (peptide)
peptide: YFGNYFTYY
B4: FSENLIYTYI (peptide)
peptide: FSENLIYTYI
B5: DSTDGCLLSF (peptide)
peptide: DSTDGCLLSF
B6: AVNALQSVY (peptide)
peptide: AVNALQSVY
B7: EGELSEGEHWY (peptide)
peptide: EGELSEGEHWY
B8: EVDRNLIQY (peptide)
peptide: EVDRNLIQY
B9: VTDGINPLI (peptide)
peptide: VTDGINPLI
B10: SVDSNLVAY (peptide)
peptide: SVDSNLVAY
B11: RTGIFPYRF (peptide)
peptide: RTGIFPYRF
B12: HLLSVSLYY (peptide)
peptide: HLLSVSLYY
B13: GFGGLSSQGVYY (peptide)
peptide: GFGGLSSQGVYY
B14: PSSMPECLSYY (peptide)
peptide: PSSMPECLSYY
B15: FYLSTPENYHY (peptide)
peptide: FYLSTPENYHY
B16: VTTDKPRAY (peptide)
peptide: VTTDKPRAY
B17: ESMDIFPLGW (peptide)
peptide: ESMDIFPLGW
B18: KSFETTVRY (peptide)
peptide: KSFETTVRY
B19: GTDKQNSTLRY (peptide)
peptide: GTDKQNSTLRY
B20: SSWSAGENDSY (peptide)
peptide: SSWSAGENDSY
B21: SWSAGENDSYS (peptide)
peptide: SWSAGENDSYS
B22: STSRLTLFS (peptide)
peptide: STSRLTLFS
B23: SMDPVTGYQY (peptide)
peptide: SMDPVTGYQY
B24: VTDGTHTDFY (peptide)
peptide: VTDGTHTDFY
B25: VSINPNSGDIY (peptide)
peptide: VSINPNSGDIY
B26: KFDVINHYF (peptide)
peptide: KFDVINHYF
B27: RLDEAMISY (peptide)
peptide: RLDEAMISY
B28: YMTSMALNY (peptide)
peptide: YMTSMALNY
B29: KAFQELGVRY (peptide)
peptide: KAFQELGVRY
B30: EIIRYIFAY (peptide)
peptide: EIIRYIFAY
B31: ESQTCASDY (peptide)
peptide: ESQTCASDY
B32: YTCEECGQAF (peptide)
peptide: YTCEECGQAF
B33: NTMDAVPRIDHY (peptide)
peptide: NTMDAVPRIDHY
B34: TVTDGTHTDFY (peptide)
peptide: TVTDGTHTDFY
B35: QTYMDGLLHY (peptide)
peptide: QTYMDGLLHY
B36: RLNGSVASY (peptide)
peptide: RLNGSVASY
B37: DTDDRELRY (peptide)
peptide: DTDDRELRY
B38: NTDSMTLNNTAY (peptide)
peptide: NTDSMTLNNTAY
B39: EDLLEVLDMY (peptide)
peptide: EDLLEVLDMY
B40: YPVVVAESMY (peptide)
peptide: YPVVVAESMY
B41: VLDPMLDFY (peptide)
peptide: VLDPMLDFY
B42: ELAAGQVVY (peptide)
peptide: ELAAGQVVY
B43: NSENHILKY (peptide)
peptide: NSENHILKY
B44: LTDPQVSYV (peptide)
peptide: LTDPQVSYV
B45: FTESNQYNIY (peptide)
peptide: FTESNQYNIY
B46: FTDPHIITF (peptide)
peptide: FTDPHIITF
B47: LQKPVLPLY (peptide)
peptide: LQKPVLPLY
B48: VAGLEAGVLY (peptide)
peptide: VAGLEAGVLY
B49: SADHPGLTF (peptide)
peptide: SADHPGLTF
B50: PPEANSLQGALY (peptide)
peptide: PPEANSLQGALY
B51: QALQDKLQTFY (peptide)
peptide: QALQDKLQTFY
B52: PANYLGKMTY (peptide)
peptide: PANYLGKMTY
B53: PSSMPECLSY (peptide)
peptide: PSSMPECLSY
B54: MADRGEARL (peptide)
peptide: MADRGEARL
B55: KTLQKPVLPLY (peptide)
peptide: KTLQKPVLPLY
B56: LSDPQAELQFY (peptide)
peptide: LSDPQAELQFY
B57: LLDEDNNIKL (peptide)
peptide: LLDEDNNIKL
B58: VSDHLQAGMLGQY (peptide)
peptide: VSDHLQAGMLGQY
B59: IMLSVDQHLY (peptide)
peptide: IMLSVDQHLY
B60: VLKIELETY (peptide)
peptide: VLKIELETY
B61: ATNIQLNIDTY (peptide)
peptide: ATNIQLNIDTY
B62: FSELNPLALY (peptide)
peptide: FSELNPLALY
B63: EVDSVALSL (peptide)
peptide: EVDSVALSL
B64: YLYQAPGSLALY (peptide)
peptide: YLYQAPGSLALY
B65: FGTTPAAEYF (peptide)
peptide: FGTTPAAEYF
B66: YSPDSFNVSW (peptide)
peptide: YSPDSFNVSW

The target in this experiment is T1, HLA-A*01:01 (human).
T1 construct: MHC class I monomer first loaded with a UV-sensitive peptide (not identified) that is cleaved by UV irradiation and exchanged for the tested peptide; captured on streptavidin plates, detected with anti-β2m; also called peptide-receptive MHC molecules
Briefly: UV-ligand exchange, anti-b2m ELISA. In short, it runs like this: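 Peptide–MHC complexes made by UV-ligand exchange of a UV-cleavable peptide; exchange yield measured by ELISA on streptavidin-coated plates, samples diluted 100-fold, 1 h 37 °C. Detection with 2 ug/ml HRP anti-β2m, TMB, A450; refolded HLA-A*02:01/MLA-001 monomer standards 15-500 ng/ml.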
B1 displayed a peptide exchange yield of 20 to 50%.

B2 showed a peptide exchange yield of more than 75%.

B3: the peptide exchange yield lay in the range of 10 to 20%.

With B4, the peptide exchange yield lay within 20 to 50%.

As to B5, the peptide exchange yield is 20 to 50%.

Consider B6, for which the peptide exchange yield fell in the range of 20 to 50%.

For the molecule B7, the peptide exchange yield fell in the range of 50 to 75%.

B8 came in with a peptide exchange yield of 50 to 75%.

For the molecule B9, the peptide exchange yield was in the range of 20 to 50%.

For the molecule B10, the peptide exchange yield lay within 50 to 75%.

Molecule B11 returned a peptide exchange yield of 20 to 50%.

For B12, the peptide exchange yield lay in the range of 10 to 20%.

Take B13: the peptide exchange yield was 50 to 75%.

In turn, B14 showed a peptide exchange yield of 50 to 75%.

For B15, the peptide exchange yield fell in the range of 50 to 75%.

B16 returned a peptide exchange yield of 20 to 50%.

Consider B17, for which the peptide exchange yield is 20 to 50%.

As for B18, the peptide exchange yield lay within 20 to 50%.

As to B19, the peptide exchange yield fell in the range of 50 to 75%.

The molecule B20 displayed a peptide exchange yield of 50 to 75%.

As for B21, the peptide exchange yield lay within 10 to 20%.

On to B22, for which the peptide exchange yield is 20 to 50%.

For the molecule B23, the peptide exchange yield was in the range of 50 to 75%.

The molecule B24 gave a peptide exchange yield of 50 to 75%.

B25 showed a peptide exchange yield of 50 to 75%.

Molecule B26 gave a peptide exchange yield of 20 to 50%.

B27 registered a peptide exchange yield of 50 to 75%.

Take B28: the peptide exchange yield fell in the range of 50 to 75%.

B29: the peptide exchange yield lay within 20 to 50%.

The molecule B30 registered a peptide exchange yield of 20 to 50%.

In turn, B31 had a peptide exchange yield of 50 to 75%.

The molecule B32 showed a peptide exchange yield of 20 to 50%.

For B33, the peptide exchange yield was more than 75%.

Take B34: the peptide exchange yield is 20 to 50%.

The molecule B35 displayed a peptide exchange yield of more than 75%.

B36 showed a peptide exchange yield of 20 to 50%.

Molecule B37 had a peptide exchange yield of 50 to 75%.

For B38, the peptide exchange yield is more than 75%.

Regarding B39, the peptide exchange yield was in the range of 20 to 50%.

Consider B40, for which the peptide exchange yield is 20 to 50%.

As for B41, the peptide exchange yield was more than 75%.

In the case of B42, the peptide exchange yield lay within 10 to 20%.

Regarding B43, the peptide exchange yield is more than 75%.

Regarding B44, the peptide exchange yield fell in the range of 50 to 75%.

Consider B45, for which the peptide exchange yield is more than 75%.

B46 had a peptide exchange yield of more than 75%.

As for B47, the peptide exchange yield is 20 to 50%.

B48 yielded a peptide exchange yield of 20 to 50%.

Turning to B49, the peptide exchange yield lay within 20 to 50%.

As to B50, the peptide exchange yield is 20 to 50%.

As to B51, the peptide exchange yield was in the range of 20 to 50%.

The molecule B52 yielded a peptide exchange yield of 50 to 75%.

For B53, the peptide exchange yield is more than 75%.

With B54, the peptide exchange yield lay in the range of 20 to 50%.

The molecule B55 registered a peptide exchange yield of 20 to 50%.

Turning to B56, the peptide exchange yield was more than 75%.

In turn, B57 showed a peptide exchange yield of 20 to 50%.

B58 registered a peptide exchange yield of 50 to 75%.

Regarding B59, the peptide exchange yield is 50 to 75%.

B60 displayed a peptide exchange yield of 50 to 75%.

B61 yielded a peptide exchange yield of 50 to 75%.

For B62, the peptide exchange yield was more than 75%.

B63 had a peptide exchange yield of 20 to 50%.

In turn, B64 came in with a peptide exchange yield of more than 75%.

B65: the peptide exchange yield lay in the range of 20 to 50%.

Consider B66, for which the peptide exchange yield lay in the range of 20 to 50%.
